Laboratory results from PMC12733864 (International Journal of Molecular Sciences, 2025).

Target: T1, recombinant D III domain of the WNV structural E glycoprotein (West Nile virus; strain of the …, UniProt Q9Q6P4)
T1 construct: also called recombinant DIII protein; recombinant analog of D III of WNV glycoprotein E
Assay: BLI; Octet K2, NTA biosensors loaded with recombinant DIII (20 ug/mL); antibodies in solution at five concentrations from 10.4 to 166.4 nM; PBS; global fit of the 1:1 model; triplicate
Details: both partners purified

T1 sequence (Q9Q6P4 whole entry, looked up, the tested form may be a part): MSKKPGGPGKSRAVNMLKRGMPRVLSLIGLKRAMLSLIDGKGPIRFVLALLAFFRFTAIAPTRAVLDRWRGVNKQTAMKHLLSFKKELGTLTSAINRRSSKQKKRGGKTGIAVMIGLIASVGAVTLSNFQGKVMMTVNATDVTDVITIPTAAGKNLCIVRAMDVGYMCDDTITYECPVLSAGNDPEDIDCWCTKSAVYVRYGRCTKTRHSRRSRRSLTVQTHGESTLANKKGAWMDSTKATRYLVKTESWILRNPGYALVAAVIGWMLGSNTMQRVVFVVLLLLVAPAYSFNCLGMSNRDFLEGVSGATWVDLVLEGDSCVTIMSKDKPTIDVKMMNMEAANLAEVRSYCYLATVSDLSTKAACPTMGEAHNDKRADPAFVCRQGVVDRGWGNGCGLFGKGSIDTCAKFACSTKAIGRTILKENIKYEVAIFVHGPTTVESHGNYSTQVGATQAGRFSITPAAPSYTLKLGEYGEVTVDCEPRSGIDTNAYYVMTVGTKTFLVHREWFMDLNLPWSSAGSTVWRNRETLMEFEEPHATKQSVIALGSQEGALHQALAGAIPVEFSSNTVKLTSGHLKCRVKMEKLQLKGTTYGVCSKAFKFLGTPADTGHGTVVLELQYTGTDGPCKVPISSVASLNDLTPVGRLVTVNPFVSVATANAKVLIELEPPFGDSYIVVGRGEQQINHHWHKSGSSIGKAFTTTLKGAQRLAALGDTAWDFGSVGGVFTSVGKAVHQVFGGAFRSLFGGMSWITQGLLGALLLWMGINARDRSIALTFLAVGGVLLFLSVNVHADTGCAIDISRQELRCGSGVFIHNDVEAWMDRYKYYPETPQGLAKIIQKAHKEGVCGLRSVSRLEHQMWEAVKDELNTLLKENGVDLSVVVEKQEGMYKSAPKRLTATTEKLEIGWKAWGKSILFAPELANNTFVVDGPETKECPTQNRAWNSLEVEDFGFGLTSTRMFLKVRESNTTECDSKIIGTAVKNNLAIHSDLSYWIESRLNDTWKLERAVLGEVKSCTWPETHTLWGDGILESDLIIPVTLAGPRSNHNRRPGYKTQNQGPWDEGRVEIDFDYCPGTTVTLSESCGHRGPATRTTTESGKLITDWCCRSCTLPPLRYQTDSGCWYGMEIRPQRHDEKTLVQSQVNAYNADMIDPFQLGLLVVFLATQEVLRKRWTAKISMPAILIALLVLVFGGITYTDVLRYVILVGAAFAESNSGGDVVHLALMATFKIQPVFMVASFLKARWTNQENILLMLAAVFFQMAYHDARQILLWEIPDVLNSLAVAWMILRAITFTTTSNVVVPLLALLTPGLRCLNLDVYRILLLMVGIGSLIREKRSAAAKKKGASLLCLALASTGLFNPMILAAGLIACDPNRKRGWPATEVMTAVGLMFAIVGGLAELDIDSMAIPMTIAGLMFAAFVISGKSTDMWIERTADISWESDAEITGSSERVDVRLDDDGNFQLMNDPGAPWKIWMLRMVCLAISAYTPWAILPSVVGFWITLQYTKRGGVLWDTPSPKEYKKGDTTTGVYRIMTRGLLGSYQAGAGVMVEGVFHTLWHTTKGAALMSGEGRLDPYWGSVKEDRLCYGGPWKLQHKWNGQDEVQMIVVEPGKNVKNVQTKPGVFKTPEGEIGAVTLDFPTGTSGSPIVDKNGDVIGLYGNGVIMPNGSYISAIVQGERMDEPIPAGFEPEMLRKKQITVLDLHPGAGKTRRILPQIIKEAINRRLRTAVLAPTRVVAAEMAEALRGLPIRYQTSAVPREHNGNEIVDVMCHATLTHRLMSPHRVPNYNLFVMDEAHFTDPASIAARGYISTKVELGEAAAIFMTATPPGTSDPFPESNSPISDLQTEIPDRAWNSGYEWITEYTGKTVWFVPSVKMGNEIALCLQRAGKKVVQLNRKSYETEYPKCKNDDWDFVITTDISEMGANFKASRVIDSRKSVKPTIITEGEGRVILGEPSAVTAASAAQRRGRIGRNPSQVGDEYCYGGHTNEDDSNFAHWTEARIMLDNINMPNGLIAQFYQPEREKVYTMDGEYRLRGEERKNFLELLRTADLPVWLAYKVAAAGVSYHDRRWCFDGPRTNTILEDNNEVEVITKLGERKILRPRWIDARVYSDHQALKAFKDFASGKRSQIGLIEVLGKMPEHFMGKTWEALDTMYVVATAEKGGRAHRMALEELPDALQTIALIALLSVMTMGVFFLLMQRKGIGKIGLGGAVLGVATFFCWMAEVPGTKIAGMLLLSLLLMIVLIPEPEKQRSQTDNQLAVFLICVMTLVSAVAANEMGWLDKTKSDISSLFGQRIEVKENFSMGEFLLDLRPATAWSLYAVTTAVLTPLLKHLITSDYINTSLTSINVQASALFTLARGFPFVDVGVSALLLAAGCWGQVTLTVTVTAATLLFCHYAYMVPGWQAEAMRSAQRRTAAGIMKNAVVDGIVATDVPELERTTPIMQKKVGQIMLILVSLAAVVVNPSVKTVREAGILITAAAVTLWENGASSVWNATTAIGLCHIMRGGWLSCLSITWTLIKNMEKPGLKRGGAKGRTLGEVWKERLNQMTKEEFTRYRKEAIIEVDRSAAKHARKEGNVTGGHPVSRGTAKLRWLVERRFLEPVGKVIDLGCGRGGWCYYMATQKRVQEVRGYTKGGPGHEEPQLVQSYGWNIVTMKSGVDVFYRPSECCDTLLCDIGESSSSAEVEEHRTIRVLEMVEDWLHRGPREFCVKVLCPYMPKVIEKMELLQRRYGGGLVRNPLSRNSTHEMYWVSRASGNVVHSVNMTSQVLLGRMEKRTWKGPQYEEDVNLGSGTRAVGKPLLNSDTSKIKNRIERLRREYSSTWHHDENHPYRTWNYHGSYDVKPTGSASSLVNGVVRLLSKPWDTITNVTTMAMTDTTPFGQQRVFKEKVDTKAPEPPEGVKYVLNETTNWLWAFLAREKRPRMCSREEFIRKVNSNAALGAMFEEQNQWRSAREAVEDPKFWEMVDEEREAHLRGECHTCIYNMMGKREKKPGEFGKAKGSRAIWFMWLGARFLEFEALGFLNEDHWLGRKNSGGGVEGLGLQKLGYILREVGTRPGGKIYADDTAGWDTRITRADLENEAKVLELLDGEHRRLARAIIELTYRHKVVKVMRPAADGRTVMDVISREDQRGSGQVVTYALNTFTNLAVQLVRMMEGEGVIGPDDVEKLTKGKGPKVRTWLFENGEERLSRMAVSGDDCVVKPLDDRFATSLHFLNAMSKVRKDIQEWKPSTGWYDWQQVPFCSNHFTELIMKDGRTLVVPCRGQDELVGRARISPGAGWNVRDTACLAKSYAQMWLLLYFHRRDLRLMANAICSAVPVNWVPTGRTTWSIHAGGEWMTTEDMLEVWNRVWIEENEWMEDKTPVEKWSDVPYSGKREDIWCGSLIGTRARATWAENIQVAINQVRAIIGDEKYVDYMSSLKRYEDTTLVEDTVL

B1: recombinant chimeric monoclonal antibody (mAb) 900, variant V4 (scFv-Fc, M252Y/S254T/T256E and H433K/N434F in the human IgG1 Fc) (antibody, V domains shown)
VH: EVQLQQSGAELVKPGASVKLSCKASGYIFTNYDINWVRQRPEQGLEWIGWIFPEDGRTKNNEKFKGKATLTTDKSSSTAYMQLSRLTSEDSAVYFCARGGGYGNYFDYWGQGTLVTVS
VL: DIVMTQAHKFMSTSVGDRVSITCKASQDVSTAVAWYQQKPGQSPKVLIYWASTRHTGVHDRFTGSGSGTDYTLTISSVQAEDLALYYCQQHYSNPLTFGAGTKLELK
In the case of B1, the Kd is reported as about 2.3 nM.
